# Experiments:
# α2,3-N sialyltransferase = target: T1, α2,3-N sialyltransferase (Rattus norvegicus, UniProt Q02734); assay: Sialyltransferase assay of soluble rat α2,3-N secreted from COS-1 cells (pBD122); type: biochemical
# T1 construct: made in house; host or cells: COS-1 (concentrated culture medium, plasmid pBD122)
# T1 sequence (Q02734 29-374 limits assumed): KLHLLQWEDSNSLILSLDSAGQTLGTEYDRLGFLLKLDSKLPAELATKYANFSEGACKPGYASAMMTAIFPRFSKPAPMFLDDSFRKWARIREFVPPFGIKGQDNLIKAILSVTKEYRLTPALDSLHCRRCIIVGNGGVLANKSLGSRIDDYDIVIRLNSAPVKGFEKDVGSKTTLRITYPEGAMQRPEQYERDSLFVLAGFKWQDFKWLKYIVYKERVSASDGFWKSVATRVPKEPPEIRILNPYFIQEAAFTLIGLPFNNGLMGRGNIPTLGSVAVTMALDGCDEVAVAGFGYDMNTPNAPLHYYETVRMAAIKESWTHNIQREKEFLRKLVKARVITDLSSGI
# Method: In order to produce a soluble form of the sialyltransferase for enzymatic characterization, a fusion protein containing the catalytic domain of the enzyme and the insulin cleavable signal sequence was constructed in the mammalian expression vector pSVL (Pharmacia). […] PCR reactions were carried out as described above with annealing temperature at 55° C.
# rat ST3N = target: T2, rat ST3N (Rattus norvegicus, UniProt Q02734); assay: Acceptor specificity of soluble rat ST3N fusion protein (Table 3); details: acceptor 0.2 mM; relative to LNT
# T2 sequence (Q02734 29-374 limits assumed): T1 sequence (Q02734 29-374 limits assumed)
# ST3N = target: T3, ST3N (Rattus norvegicus, UniProt Q02734); assay: Acceptor specificity of ST3N (Table 4); details: acceptor 0.2 mM
# T3 sequence (Q02734 29-374 limits assumed): T1 sequence (Q02734 29-374 limits assumed)
# ST3 = target: T4, ST3 (Homo sapiens, UniProt Q11206); assay: Acceptor specificity of soluble ST3 (AZ3, concentrated COS-1 media); type: biochemical
# T4 construct: A truncated form of ST3, lacking the first 39 amino acids of the long-form open reading frame; made in house; host or cells: COS-1 (concentrated culture medium)
# T4 sequence (Q11206 41-333): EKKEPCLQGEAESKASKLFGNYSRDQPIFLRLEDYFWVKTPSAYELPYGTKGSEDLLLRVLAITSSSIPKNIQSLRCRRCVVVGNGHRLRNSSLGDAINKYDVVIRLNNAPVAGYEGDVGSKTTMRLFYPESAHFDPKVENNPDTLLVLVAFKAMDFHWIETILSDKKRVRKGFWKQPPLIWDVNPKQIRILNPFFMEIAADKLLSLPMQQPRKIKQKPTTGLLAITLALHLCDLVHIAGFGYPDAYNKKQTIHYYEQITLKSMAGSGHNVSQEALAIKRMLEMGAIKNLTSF
# human ST3N = target: T5, human ST3N (Homo sapiens, UniProt Q11203); assay: Acceptor specificity of soluble human ST3N (protein A fusion from COS-1 cells, on IgG Sepharose); details: acceptor 0.2 mM; relative to LNT
# T5 sequence (Q11203 62-375): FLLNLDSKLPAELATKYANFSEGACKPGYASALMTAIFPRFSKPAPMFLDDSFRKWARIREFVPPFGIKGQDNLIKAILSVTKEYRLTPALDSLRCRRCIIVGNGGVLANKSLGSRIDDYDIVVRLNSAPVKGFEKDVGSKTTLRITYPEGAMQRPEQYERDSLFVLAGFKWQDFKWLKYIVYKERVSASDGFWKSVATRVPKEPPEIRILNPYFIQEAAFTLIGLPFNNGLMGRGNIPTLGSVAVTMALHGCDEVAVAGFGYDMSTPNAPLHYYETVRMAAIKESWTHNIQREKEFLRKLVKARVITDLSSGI
# ST3O = target: T6, ST3O (Sus scrofa, UniProt Q02745); assay: Acceptor specificity of ST3O (Table 4); details: acceptor 0.2 mM
# T6 sequence (Q02745 28-343 limits assumed): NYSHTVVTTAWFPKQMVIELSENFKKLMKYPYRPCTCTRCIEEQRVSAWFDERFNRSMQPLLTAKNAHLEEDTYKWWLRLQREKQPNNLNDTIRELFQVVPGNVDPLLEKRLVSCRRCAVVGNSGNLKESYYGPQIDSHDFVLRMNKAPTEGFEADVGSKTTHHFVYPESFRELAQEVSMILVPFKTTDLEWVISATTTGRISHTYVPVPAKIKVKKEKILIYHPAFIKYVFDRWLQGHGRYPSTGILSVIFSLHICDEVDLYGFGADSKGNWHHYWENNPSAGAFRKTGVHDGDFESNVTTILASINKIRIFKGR
substance,measurement,setting,value
"Asialo-α1 -acid glycoprotein: glycoprotein acceptor (Galβ1,4GlcNAc-R)","acceptor utilisation by secreted α2,3-N enzyme","α2,3-N sialyltransferase",capable of sialylating
same,Relative activity (%) Rat,rat ST3N,9%
same,Relative rate (%) ST3N,ST3N,9%
same,acceptor substrate for ST3 enzyme (in words),ST3,sialic acid was incorporated
same,Relative activity (%) Human,human ST3N,14%
same,Relative rate (%) ST30,ST3O,0%
